Test results: publication PMC4560640

Molecular target: base subcomplex, heterologously expressed in E. coli (S. cerevisiae) (UniProt P38764)

Ub-AMC cleavage activity of Ubp6 with purified base against Ubp6 alone: 300 fold
Substance: Ubp6, wild type (from UniProt P43593 1-499) (enzyme)
